The values that follow come from PMC5025888 (Scientific Reports, 2016).

The target in this experiment is NS1 of rgPR8-NS1-WT virus (Influenza A virus A/Puerto …, UniProt P03496). Put plainly: Western blot. The settings on record: one partner purified. Background: Immunoblotting shows a protein as a band on a membrane.
Chain of NS1 of rgPR8-NS1-WT virus (P03496 whole entry): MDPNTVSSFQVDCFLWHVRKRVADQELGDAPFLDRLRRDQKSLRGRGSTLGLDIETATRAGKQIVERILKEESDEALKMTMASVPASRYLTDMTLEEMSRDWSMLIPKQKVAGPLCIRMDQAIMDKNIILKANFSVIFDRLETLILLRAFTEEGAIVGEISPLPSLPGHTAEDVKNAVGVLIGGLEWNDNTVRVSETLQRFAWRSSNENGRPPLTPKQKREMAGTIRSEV

B1: monoclonal antibody 2H6 (antibody, V domains shown)
VH: DVKLVESGGGLVNLGGSLKLSCAASGFTFSRYYMSWVRQTPEKRLELVAAINHNSGRTYYSDTVKGRFTISRDNAKNTLYLQMSSLKSEDTALYYCTRHPLIYHGNYLDYWGQGTTLTVSS
VL: DIVLTQSPASLAVSLGQRATISCKASQSVDYDGDSYVTWYQQKPGQPPKLLIYVASNLESGIPARFSGSGSGTDFTLNIHPVEEEDAATYYCQQSNEDPWTFGGGTKLEIK
On to B1, for which the binding result was “binds”.
